What was measured:
Test in all cases: two-hybrid library CCNG1;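 further: natural log of median RNA to DNA barcode read ratio; higher means stronger binding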
[1] = biological target: T1, 4H1845-bA
T1 chain: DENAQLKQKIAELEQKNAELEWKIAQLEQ

[2] = biological target: T2, 4H2442-bA
T2 chain: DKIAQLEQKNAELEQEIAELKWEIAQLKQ

[3] = biological target: T3, 4H2576-bA
T3 chain: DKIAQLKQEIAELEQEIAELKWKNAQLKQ

[4] = biological target: T4, 4H2610-bA
T4 chain: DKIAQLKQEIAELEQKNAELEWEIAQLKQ

[5] = biological target: T5, 4H2618-bA
T5 chain: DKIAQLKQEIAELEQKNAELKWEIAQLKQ

[6] = biological target: T6, 4H2667-bA
T6 chain: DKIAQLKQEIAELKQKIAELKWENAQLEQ

[7] = biological target: T7, 4H2697-bA
T7 chain: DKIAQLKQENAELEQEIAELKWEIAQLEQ

[8] = biological target: T8, 4H2729-bA
T8 chain: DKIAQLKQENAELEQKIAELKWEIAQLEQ

[9] = biological target: T9, 4H3010-bN
T9 chain: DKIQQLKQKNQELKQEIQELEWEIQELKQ

[10] = biological target: T10, 4H3112-bA
T10 chain: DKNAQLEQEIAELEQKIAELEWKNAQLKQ

[11] = biological target: T11, 4H3185-bA
T11 chain: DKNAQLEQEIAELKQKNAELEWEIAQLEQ

[12] = biological target: T12, 4H3189-bA
T12 chain: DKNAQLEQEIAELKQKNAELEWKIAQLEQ

[13] = biological target: T13, 4H331-bA
T13 chain: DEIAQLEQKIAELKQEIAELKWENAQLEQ

[14] = biological target: T14, 4H3354-bA
T14 chain: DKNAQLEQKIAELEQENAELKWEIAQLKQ

[15] = biological target: T15, 4H338-bA
T15 chain: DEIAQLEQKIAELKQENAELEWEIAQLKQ

[16] = biological target: T16, 4H3427-bA
T16 chain: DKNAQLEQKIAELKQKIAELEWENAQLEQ

[17] = biological target: T17, 4H3606-bA
T17 chain: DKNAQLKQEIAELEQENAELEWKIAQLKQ

[18] = biological target: T18, 4H370-bA
T18 chain: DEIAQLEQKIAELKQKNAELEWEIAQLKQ

[19] = biological target: T19, 4H3782-bA
T19 chain: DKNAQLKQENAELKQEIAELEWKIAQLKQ

[20] = biological target: T20, 4H3843-bA
T20 chain: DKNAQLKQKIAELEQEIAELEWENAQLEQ

[21] = biological target: T21, 4H3855-bA
T21 chain: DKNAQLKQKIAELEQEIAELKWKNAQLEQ

[22] = biological target: T22, 4H4001-bA
T22 chain: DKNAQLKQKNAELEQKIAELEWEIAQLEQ

[23] = biological target: T23, 4H454-bA
T23 chain: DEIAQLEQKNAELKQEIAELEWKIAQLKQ

[24] = biological target: T24, 4H462-bA
T24 chain: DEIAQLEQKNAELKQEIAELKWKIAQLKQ

[25] = biological target: T25, 4H568-bA
T25 chain: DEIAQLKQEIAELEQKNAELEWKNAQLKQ

[26] = biological target: T26, 4H607-bA
T26 chain: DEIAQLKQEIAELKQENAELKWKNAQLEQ

[27] = biological target: T27, 4H607-bN
T27 chain: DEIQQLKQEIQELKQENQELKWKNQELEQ

[28] = biological target: T28, 4H687-bA
T28 chain: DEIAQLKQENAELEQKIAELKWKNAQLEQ

[29] = biological target: T29, 4H717-bA
T29 chain: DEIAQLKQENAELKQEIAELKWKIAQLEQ

[30] = biological target: T30, 4H72-bA
T30 chain: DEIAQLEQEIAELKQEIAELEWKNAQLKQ

[31] = biological target: T31, 4H754-bA
T31 chain: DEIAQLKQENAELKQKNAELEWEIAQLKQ

[32] = biological target: T32, 4H797-bA
T32 chain: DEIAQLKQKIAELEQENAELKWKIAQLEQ

[33] = biological target: T33, 4H883-bA
T33 chain: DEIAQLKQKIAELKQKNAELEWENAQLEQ

[34] = biological target: T34, 4H908-bA
T34 chain: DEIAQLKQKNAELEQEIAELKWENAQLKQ

[35] = biological target: T35, 4H918-bA
T35 chain: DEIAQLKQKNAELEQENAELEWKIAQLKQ

[36] = biological target: T36, 4H953-bA
T36 chain: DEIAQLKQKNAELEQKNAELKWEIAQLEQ

[37] = biological target: T37, 4H967-bA
T37 chain: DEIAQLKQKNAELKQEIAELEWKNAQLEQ

[38] = biological target: T38, P2mSN
T38 chain: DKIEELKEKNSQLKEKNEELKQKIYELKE

[39] = biological target: T39, P3mSN
T39 chain: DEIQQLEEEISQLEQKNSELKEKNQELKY

[40] = biological target: T40, P4bH1
T40 chain: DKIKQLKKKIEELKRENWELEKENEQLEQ

[41] = biological target: T41, P4mSN
T41 chain: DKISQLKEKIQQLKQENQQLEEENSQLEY

[42] = biological target: T42, P5mSN
T42 chain: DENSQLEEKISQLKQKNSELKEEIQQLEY

[43] = biological target: T43, P6mSN
T43 chain: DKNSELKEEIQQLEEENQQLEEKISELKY

[44] = biological target: T44, P7mSN
T44 chain: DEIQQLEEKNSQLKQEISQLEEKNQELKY

[45] = biological target: T45, P8mSN
T45 chain: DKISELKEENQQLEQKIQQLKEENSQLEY

[46] = biological target: T46, P9mSN
T46 chain: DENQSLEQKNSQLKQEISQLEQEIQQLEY

[47] = biological target: T47, 4H3497-bA
T47 chain: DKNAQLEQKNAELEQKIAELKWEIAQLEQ

[48] = biological target: T48, O13-bH
T48 chain: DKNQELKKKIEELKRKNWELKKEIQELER

[49] = biological target: T49, P1mSN
T49 chain: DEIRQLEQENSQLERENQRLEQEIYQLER

[50] = biological target: T50, 4H2619-bA
T50 chain: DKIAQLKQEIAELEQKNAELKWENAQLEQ

[51] = biological target: T51, 4H2691-bA
T51 chain: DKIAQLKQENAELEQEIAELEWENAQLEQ

[52] = biological target: T52, 4H2745-bA
T52 chain: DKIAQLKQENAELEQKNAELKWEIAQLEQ

[53] = biological target: T53, 4H3070-bA
T53 chain: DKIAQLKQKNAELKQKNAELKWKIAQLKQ

[54] = biological target: T54, 4H3129-bN
T54 chain: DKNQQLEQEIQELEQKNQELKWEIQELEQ

[55] = biological target: T55, 4H342-bA
T55 chain: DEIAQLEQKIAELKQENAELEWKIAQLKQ

[56] = biological target: T56, 4H344-bA
T56 chain: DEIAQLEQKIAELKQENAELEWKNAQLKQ

[57] = biological target: T57, 4H363-bA
T57 chain: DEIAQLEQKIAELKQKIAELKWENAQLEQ

[58] = biological target: T58, 4H3632-bA
T58 chain: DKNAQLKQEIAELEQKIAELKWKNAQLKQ

[59] = biological target: T59, 4H3907-bA
T59 chain: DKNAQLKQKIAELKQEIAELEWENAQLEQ

[60] = biological target: T60, 4H3961-bA
T60 chain: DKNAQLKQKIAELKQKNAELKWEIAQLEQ

[61] = biological target: T61, 4H470-bA
T61 chain: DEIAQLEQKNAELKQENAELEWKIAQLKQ

[62] = biological target: T62, 4H496-bA
T62 chain: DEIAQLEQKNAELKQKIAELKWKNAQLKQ

[63] = biological target: T63, 4H953-bH
T63 chain: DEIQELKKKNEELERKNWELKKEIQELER

DENAQLKQKIAELEQKNAELEWKIAQLEQ [4H1845-bA] was tested, and the interaction score [1] was 0.564, the interaction score [2] was -0.649 and the interaction score [3] was 0.69. The interaction score [4] was -0.596, the interaction score [5] was -0.329 and the interaction score [6] was 0.247. For the same binder, the interaction score [7] was -0.601, the interaction score [8] was -0.636 and the interaction score [9] was 0.0715. For the same binder, the interaction score [10] was -0.795, the interaction score [11] was -0.124 and the interaction score [12] was -0.547. The interaction score [13] was -0.344, the interaction score [14] was -0.823 and the interaction score [15] was -1.75. For the same binder, the interaction score [16] was -0.783, the interaction score [17] was -1.46 and the interaction score [18] was -0.74. The interaction score [19] was -0.678, the interaction score [20] was -0.572 and the interaction score [21] was -1.1. It also gave an interaction score [22] of -0.341, an interaction score [23] of -0.0982 and an interaction score [24] of -0.986. For the same binder, the interaction score [25] was -0.306, the interaction score [26] was -1.7 and the interaction score [27] was -0.945. It also gave an interaction score [28] of -0.612, an interaction score [29] of -0.827 and an interaction score [30] of -0.517. For the same binder, the interaction score [31] was -0.405, the interaction score [32] was -0.424 and the interaction score [33] was -0.795. For the same binder, the interaction score [34] was -1.42, the interaction score [35] was -0.752 and the interaction score [36] was -1.23. For the same binder, the interaction score [37] was -0.617.

In the case of DKIEELKEKNSQLKEKNEELKQKIYELKE [P2mSN], the interaction score [38] is reported as -1.97, the interaction score [39] is reported as -0.831 and the interaction score [40] is reported as -1.37. It also gave an interaction score [41] of -0.0295, an interaction score [42] of -0.724 and an interaction score [43] of -0.752. The interaction score [44] was -0.243, the interaction score [45] was -1.26 and the interaction score [46] was -1.13.

DKIAQLEQKNAELEQEIAELKWEIAQLKQ [4H2442-bA] gave an interaction score [2] of 1.33, an interaction score [3] of -0.202 and an interaction score [5] of 0.238. It also gave an interaction score [6] of -0.365, an interaction score [8] of 1.52 and an interaction score [10] of -0.0125. The interaction score [11] was -0.212, the interaction score [13] was -1.21 and the interaction score [14] was -0.829. It also gave an interaction score [15] of -0.0859, an interaction score [16] of 0.0308 and an interaction score [47] of 1.63. It also gave an interaction score [19] of -1.13, an interaction score [21] of -0.595 and an interaction score [22] of 0.5. It also gave an interaction score [23] of 0.831, an interaction score [25] of -1.89 and an interaction score [26] of -1.4. The interaction score [28] was -0.225, the interaction score [29] was -0.902 and the interaction score [30] was -1.46. For the same binder, the interaction score [31] was 0.0444, the interaction score [32] was -1.24 and the interaction score [33] was -1.15. The interaction score [34] was -0.745, the interaction score [35] was -1.46 and the interaction score [36] was -1.68. The interaction score [37] was -1.64.

DEIAQLKQENAELEQKIAELKWKNAQLEQ [4H687-bA] was tested, and the interaction score [28] was -1.03, the interaction score [29] was -1.32 and the interaction score [30] was -0.595. The interaction score [31] was -0.491, the interaction score [32] was -0.624 and the interaction score [33] was -1.57. The interaction score [34] was -0.749, the interaction score [35] was -0.947 and the interaction score [36] was -1.51. The interaction score [37] was 1.07 and the interaction score [48] was 1.07.

For DEIRQLEQENSQLERENQRLEQEIYQLER [P1mSN], the interaction score [49] was -1.23, the interaction score [38] was 1.73 and the interaction score [39] was -1.95. It also gave an interaction score [41] of -1.09, an interaction score [42] of -1.04 and an interaction score [43] of -0.582. It also gave an interaction score [44] of -1.01, an interaction score [45] of -1.17 and an interaction score [46] of -2.07.

DKIAQLKQEIAELEQKNAELKWENAQLEQ [4H2619-bA] was tested, and the interaction score [50] was 0.00432, the interaction score [51] was -0.41 and the interaction score [52] was -0.393. For the same binder, the interaction score [53] was -0.983, the interaction score [54] was -2.48 and the interaction score [55] was 1.56. For the same binder, the interaction score [56] was 2.12, the interaction score [57] was -0.409 and the interaction score [58] was -1.09. For the same binder, the interaction score [59] was -0.505, the interaction score [60] was -0.981 and the interaction score [61] was -0.832. It also gave an interaction score [62] of -0.573.

In the case of DKIAQLKQENAELEQEIAELEWENAQLEQ [4H2691-bA], the interaction score [51] is reported as -1.17, the interaction score [53] is reported as 0.439 and the interaction score [55] is reported as -0.443. The interaction score [58] was -0.861, the interaction score [62] was -3.04 and the interaction score [63] was -0.501.

Source: publication PMC10397247
